Experimental data from US20160068822A1.

Experiments:
TALE(KLF4)-NLS-CRY2PHR = experiment: cell-based or functional assay
TALE(Ngn2)-NLS-CRY2PHR = experiment: cell-based or functional assay

Substance: CIB1-NLS-VP64-2A_GFP
- KLF4 mRNA upregulation, saturated at 5 mW/cm2 (HEK293FT cells) (TALE(KLF4)-NLS-CRY2PHR): 2.3 fold
- Neurog2 expression peak at 12 h of light stimulation (TALE(Ngn2)-NLS-CRY2PHR): 19 fold
- Neurog2 mRNA level 0.5 h after the end of a 6 h stimulation (TALE(Ngn2)-NLS-CRY2PHR): 16 fold
- upregulation of Neurog2 expression at 0.5 h of light stimulation (TALE(Ngn2)-NLS-CRY2PHR): 5 fold
